Consider 12 molecules from patent US20240182536A1 (MURAL ONCOLOGY, published 2024).

For assay [1], the target named is T1, mouse IL-18 binding protein (mouse, UniProt Q9Z0M9 29-193).
T1 construct: also called Mouse IL18BP; Mouse IL-18BP
T1 sequence (looked up): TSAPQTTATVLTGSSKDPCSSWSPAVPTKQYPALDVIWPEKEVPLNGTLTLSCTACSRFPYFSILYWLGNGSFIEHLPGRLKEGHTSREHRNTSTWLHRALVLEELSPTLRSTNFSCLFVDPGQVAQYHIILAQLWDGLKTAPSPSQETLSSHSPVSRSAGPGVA
Kind of assay: Octet BLI, monoFc scaffold. How it is done:
(§1) Octet 96red instrument was used to determine affinities of IL18 proteins to BP or receptors. 5-10 ug/ml analyte proteins were used for loading on Sartorius tips (AHC or SA). […] 120-180 s loading, 200 s association and 800 s dissociation were used for kinetics. 3-7 data points were used to calculate affinities.
(§2) Several mouse variants were next tested for binding affinity to mouse IL-18R alpha and mouse IL-18BP.

Assay [2] deals with T2, mouse IL-18 receptor alpha (mouse, UniProt Q61098 20-326, limits assumed).
T2 construct: also called Mouse IL18Ra; mouse IL-18R alpha
T2 sequence (looked up): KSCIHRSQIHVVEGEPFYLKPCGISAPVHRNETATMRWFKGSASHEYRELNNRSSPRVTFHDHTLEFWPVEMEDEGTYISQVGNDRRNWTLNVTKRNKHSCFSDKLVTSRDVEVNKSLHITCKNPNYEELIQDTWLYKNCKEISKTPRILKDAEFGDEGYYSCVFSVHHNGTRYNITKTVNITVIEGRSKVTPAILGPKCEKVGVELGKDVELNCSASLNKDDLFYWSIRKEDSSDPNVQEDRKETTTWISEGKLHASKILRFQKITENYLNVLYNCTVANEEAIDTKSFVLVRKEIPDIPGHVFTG
Briefly: Octet BLI, monoFc scaffold. How it is done: as §1, §2
Background: Biolayer interferometry detects binding as a change in optical thickness at a sensor tip.

In assay [3] the target is T3, interleukin 18 binding protein (IL-18BP) (UniProt O95998 31-194).
T3 sequence (looked up): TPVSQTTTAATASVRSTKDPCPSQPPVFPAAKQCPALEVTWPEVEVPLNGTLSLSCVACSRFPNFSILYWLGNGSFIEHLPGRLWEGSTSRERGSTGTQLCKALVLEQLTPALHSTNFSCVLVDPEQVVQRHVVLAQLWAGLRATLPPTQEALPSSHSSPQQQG
Kind of assay: cell-based or functional assay.

Assay [4] has as its target T4, IL-18 receptor (IL-18Rα and IL-18Rβ) (UniProt Q13478 19-541; O95256 20-599, limits assumed).
T4 sequence (looked up) 1: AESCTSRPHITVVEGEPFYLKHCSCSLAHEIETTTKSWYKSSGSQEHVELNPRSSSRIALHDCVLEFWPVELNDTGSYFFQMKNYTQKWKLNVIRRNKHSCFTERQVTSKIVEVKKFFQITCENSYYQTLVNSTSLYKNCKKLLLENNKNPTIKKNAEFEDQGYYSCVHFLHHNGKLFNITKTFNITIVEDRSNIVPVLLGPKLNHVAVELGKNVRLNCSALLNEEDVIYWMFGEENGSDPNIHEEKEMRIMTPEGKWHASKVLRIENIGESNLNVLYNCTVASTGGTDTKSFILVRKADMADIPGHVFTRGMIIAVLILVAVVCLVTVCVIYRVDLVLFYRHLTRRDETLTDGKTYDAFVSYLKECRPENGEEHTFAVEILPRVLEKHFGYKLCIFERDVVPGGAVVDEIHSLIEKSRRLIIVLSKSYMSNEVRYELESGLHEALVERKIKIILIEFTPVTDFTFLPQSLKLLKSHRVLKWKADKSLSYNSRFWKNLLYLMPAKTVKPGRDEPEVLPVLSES
T4 sequence (looked up) 2: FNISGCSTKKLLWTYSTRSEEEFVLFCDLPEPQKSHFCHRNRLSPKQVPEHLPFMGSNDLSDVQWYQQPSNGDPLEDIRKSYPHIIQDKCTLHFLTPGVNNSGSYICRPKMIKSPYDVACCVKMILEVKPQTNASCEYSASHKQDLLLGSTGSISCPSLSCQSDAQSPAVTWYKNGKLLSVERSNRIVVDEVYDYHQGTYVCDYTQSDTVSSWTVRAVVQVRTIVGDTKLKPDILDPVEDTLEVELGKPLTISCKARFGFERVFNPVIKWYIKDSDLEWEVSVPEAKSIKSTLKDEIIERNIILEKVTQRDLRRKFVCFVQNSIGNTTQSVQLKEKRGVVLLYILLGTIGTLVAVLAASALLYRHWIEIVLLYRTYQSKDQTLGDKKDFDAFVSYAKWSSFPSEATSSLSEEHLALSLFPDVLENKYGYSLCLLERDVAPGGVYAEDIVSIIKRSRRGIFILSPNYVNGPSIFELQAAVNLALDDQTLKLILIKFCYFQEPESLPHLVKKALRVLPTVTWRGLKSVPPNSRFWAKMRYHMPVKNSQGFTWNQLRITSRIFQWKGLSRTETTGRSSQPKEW
Kind of assay: cell-based or functional assay.

B1: Comparator 5 on monoFc scaffold (Fc fusion, not shown: small tags and cut ends)
chain: HFGRLHCTTAVIRNINDQVLFVDKRQPVFEDMTDIDQSASEPQTRLIIYAYGDSRARGKAVTLSVKDSKMSTLSCKNKIISFEEMDPPENIDDIQSDLIFFQKRVPGHNKMEFESSLYEGHFLACQKEDDAFKLILKKKDENGDKSVMFTLTNLHQSNGGPSVFLFPPKPKDTLMISRTPEVTCVVVDVSHEDPEVKFNWYVDGVEVHNAKTKPREEQYNSTYRVVSVLTVLHQDWLNGKEYKCKVSNKALPAPIEKTISKAKGQPREPQVYTLPPSREEMTKNQVNLTCLVKGFYPSDIAVEWESNGQPENNYKTTPPVLDSDGSFFLNSTLTVDKSRWQQGNVFSCSVMHEALHNHYTQKSLSLS
As usually defined, the Kd is the equilibrium constant for the complex coming apart. With B1, the binding result in assay [1] is listed as “no binding”. Further, the Kd in assay [2] came to 1.27 nM.

B2: mouse IL-18 G3T/H6K/L59K on monoFc scaffold (Fc fusion, not shown: small tags and cut ends)
chain: NFTRLKSTTAVIRNINDQVLFVDKRQPVFEDMTDIDQSASEPQTRLIIYMYKDSEVRGKAVTLSVKDSKMSTLSSKNKIISFEEMDPPENIDDIQSDLIFFQKRVPGHNKMEFESSLYEGHFLASQKEDDAFKLILKKKDENGDKSVMFTLTNLHQSNGGPSVFLFPPKPKDTLMISRTPEVTCVVVDVSHEDPEVKFNWYVDGVEVHNAKTKPREEQYNSTYRVVSVLTVLHQDWLNGKEYKCKVSNKALPAPIEKTISKAKGQPREPQVYTLPPSREEMTKNQVNLTCLVKGFYPSDIAVEWESNGQPENNYKTTPPVLDSDGSFFLNSTLTVDKSRWQQGNVFSCSVMHEALHNHYTQKSLSLS
Regarding B2, in assay [1], the binding result is on record as “no binding”. Also, the Kd in assay [2] is 12.8 nM.

B3: mouse IL-18 G3T/L59K on monoFc scaffold (Fc fusion, not shown: small tags and cut ends)
chain: NFTRLHSTTAVIRNINDQVLFVDKRQPVFEDMTDIDQSASEPQTRLIIYMYKDSEVRGKAVTLSVKDSKMSTLSSKNKIISFEEMDPPENIDDIQSDLIFFQKRVPGHNKMEFESSLYEGHFLASQKEDDAFKLILKKKDENGDKSVMFTLTNLHQSNGGPSVFLFPPKPKDTLMISRTPEVTCVVVDVSHEDPEVKFNWYVDGVEVHNAKTKPREEQYNSTYRVVSVLTVLHQDWLNGKEYKCKVSNKALPAPIEKTISKAKGQPREPQVYTLPPSREEMTKNQVNLTCLVKGFYPSDIAVEWESNGQPENNYKTTPPVLDSDGSFFLNSTLTVDKSRWQQGNVFSCSVMHEALHNHYTQKSLSLS
Turning to B3, in assay [1], the binding result is listed as “no binding”. This molecule displayed a Kd in assay [2] of 12.3 nM.

B4: IL-18 variant G3P, E6H, D54A, S55P, Q56K, T63S, N91M (ligand)
chain: YFPKLHSKLSVIRNLNDQVLFIDQGNRPLFEDMTDSDMRDNAPRTIFIISMYKAPKPRGMAVSISVKSEKISTLSSENKIISFKEMNPPDMIKDTKSDIIFFQRSVPGHDNKMQFESSSYEGYFLASEKERDLFKLILKKEDELGDRSIMFTVQNED
Regarding B4, in assay [3], the “EC50 (pM) + 300 nM BP, HEK-blue re-screening” value (“EC50 (pM) + 300 nM BP” below) is 8.23 pM and the “Ratio (HEK-blue EC50, + 300 nM BP against - BP)” value (shortened to “Ratio”) amounted to 1.5. The “EC50 (pM) - BP, HEK-blue re-screening” value in assay [4] is 5.4 pM.

B5: IL-18 variant G3P, E6V, K53A, D54W, S55P, T63S, N91L, R104K (ligand)
chain: YFPKLVSKLSVIRNLNDQVLFIDQGNRPLFEDMTDSDMRDNAPRTIFIISMYAWPQPRGMAVSISVKSEKISTLSSENKIISFKEMNPPDLIKDTKSDIIFFQKSVPGHDNKMQFESSSYEGYFLASEKERDLFKLILKKEDELGDRSIMFTVQNED
For the molecule B5, in assay [3], the “EC50 (pM) + 300 nM BP” value is 15.8 pM and the “Ratio” value worked out at 1.9. For the same molecule, the “EC50 (pM) - BP, HEK-blue re-screening” value in assay [4] is 8.21 pM.

B6: IL-18 variant G3Q, E6Q, K53T, D54W, S55F, N91Y (ligand)
chain: YFQKLQSKLSVIRNLNDQVLFIDQGNRPLFEDMTDSDMRDNAPRTIFIISMYTWFQPRGMAVTISVKSEKISTLSSENKIISFKEMNPPDYIKDTKSDIIFFQRSVPGHDNKMQFESSSYEGYFLASEKERDLFKLILKKEDELGDRSIMFTVQNED
In the case of B6, in assay [3], the “EC50 (pM) + 300 nM BP” value is 2.54 pM and the “Ratio” value was 1.1. The “EC50 (pM) - BP, HEK-blue re-screening” value in assay [4] was found to be 2.36 pM.

B7: IL-18 variant G3P, E6K, D54Y, S55P, Q56H, T63S, N91S, R104Q (ligand)
chain: YFPKLKSKLSVIRNLNDQVLFIDQGNRPLFEDMTDSDMRDNAPRTIFIISMYKYPHPRGMAVSISVKSEKISTLSSENKIISFKEMNPPDSIKDTKSDIIFFQQSVPGHDNKMQFESSSYEGYFLASEKERDLFKLILKKEDELGDRSIMFTVQNED
With B7, in assay [3], the “EC50 (pM) + 300 nM BP” value amounted to 2.99 pM and the “Ratio” value is 1.9. Besides, the “EC50 (pM) - BP, HEK-blue re-screening” value in assay [4] came out at 1.58 pM.

B8: IL-18 variant G3P, E6H, N91L (ligand)
chain: YFPKLHSKLSVIRNLNDQVLFIDQGNRPLFEDMTDSDMRDNAPRTIFIISMYKDSQPRGMAVTISVKSEKISTLSSENKIISFKEMNPPDLIKDTKSDIIFFQRSVPGHDNKMQFESSSYEGYFLASEKERDLFKLILKKEDELGDRSIMFTVQNED
With B8, in assay [3], the “EC50 (pM) + 300 nM BP” value was 5.34 pM and the “Ratio” value came to 1.7. The “EC50 (pM) - BP, HEK-blue re-screening” value in assay [4] is 3.21 pM.

B9: IL-18 variant G3P, E6K, D54R, S55P, T63A, N91V (ligand)
chain: YFPKLKSKLSVIRNLNDQVLFIDQGNRPLFEDMTDSDMRDNAPRTIFIISMYKRPQPRGMAVAISVKSEKISTLSSENKIISFKEMNPPDVIKDTKSDIIFFQRSVPGHDNKMQFESSSYEGYFLASEKERDLFKLILKKEDELGDRSIMFTVQNED
Turning to B9, in assay [3], the “EC50 (pM) + 300 nM BP” value came out at 10.1 pM and the “Ratio” value was found to be 1.1. Besides, the “EC50 (pM) - BP, HEK-blue re-screening” value in assay [4] was 9.07 pM.

B10: IL-18 variant G3P, E6K, D54Y, S55P, T63S, N91S, R104Q, Q154R (ligand)
chain: YFPKLKSKLSVIRNLNDQVLFIDQGNRPLFEDMTDSDMRDNAPRTIFIISMYKYPQPRGMAVSISVKSEKISTLSSENKIISFKEMNPPDSIKDTKSDIIFFQQSVPGHDNKMQFESSSYEGYFLASEKERDLFKLILKKEDELGDRSIMFTVRNED
Turning to B10, in assay [3], the “EC50 (pM) + 300 nM BP” value amounted to 2.58 pM and the “Ratio” value worked out at 2.4. In addition, in assay [4], the “EC50 (pM) - BP, HEK-blue re-screening” value came to 1.09 pM.

B11: IL-18 variant G3Q, E6H, K53T, D54S, S55Y, N91Y, R104K (ligand)
chain: YFQKLHSKLSVIRNLNDQVLFIDQGNRPLFEDMTDSDMRDNAPRTIFIISMYTSYQPRGMAVTISVKSEKISTLSSENKIISFKEMNPPDYIKDTKSDIIFFQKSVPGHDNKMQFESSSYEGYFLASEKERDLFKLILKKEDELGDRSIMFTVQNED
For B11, in assay [3], the “EC50 (pM) + 300 nM BP” value turned out to be 4.69 pM and the “Ratio” value turned out to be 1.8. Also, the “EC50 (pM) - BP, HEK-blue re-screening” value in assay [4] came out at 2.63 pM.

B12: IL-18 variant G3P, E6K, D54Y, S55P, T63S, N91S, R104Q (ligand)
chain: YFPKLKSKLSVIRNLNDQVLFIDQGNRPLFEDMTDSDMRDNAPRTIFIISMYKYPQPRGMAVSISVKSEKISTLSSENKIISFKEMNPPDSIKDTKSDIIFFQQSVPGHDNKMQFESSSYEGYFLASEKERDLFKLILKKEDELGDRSIMFTVQNED
Regarding B12, in assay [3], the “EC50 (pM) + 300 nM BP” value amounted to 1.18 pM and the “Ratio” value came to 1.6. Moreover, the “EC50 (pM) - BP, HEK-blue re-screening” value in assay [4] came out at 0.73 pM.
